PMC9482650, “Quantitative fragmentomics allow affinity mapping of interactomes” (Nature Communications, 2022)

Assays:
Test in all cases: holdup assay
Set-up in all cases: key: below the threshold = too weak to quantify, mostly under pKd 3.1 to 4
Settings in all cases: plain residues with an end cap or a label only (N-terminal biotin on a linker: ado-ado)
FRMPD2_3, Q68DX3 = biological target: FRMPD2_3, Q68DX3
LIN7C, Q9NUP9 = biological target: T1, LIN7C, Q9NUP9
T1 sequence (Q9NUP9 88-185, limits assumed, looked up): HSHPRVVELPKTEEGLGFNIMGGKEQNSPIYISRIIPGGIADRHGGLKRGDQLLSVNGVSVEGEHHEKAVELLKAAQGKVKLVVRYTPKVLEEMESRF

SCRIB_2, Q14160 = biological target: SCRIB_2, Q14160
Sequence of SCRIB_2, Q14160 (Q14160 857-960): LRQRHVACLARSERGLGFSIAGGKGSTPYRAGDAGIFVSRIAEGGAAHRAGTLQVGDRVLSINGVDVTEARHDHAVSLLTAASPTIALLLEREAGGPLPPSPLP

SHANK1, Q9Y566 = biological target: T2, SHANK1, Q9Y566
T2 sequence (Q9Y566 658-767, limits assumed, looked up): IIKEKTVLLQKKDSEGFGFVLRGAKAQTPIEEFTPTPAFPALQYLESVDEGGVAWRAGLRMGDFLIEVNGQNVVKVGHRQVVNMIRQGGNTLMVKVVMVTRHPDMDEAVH

NHERF4_1, Q86UT5-2 = biological target: NHERF4_1, Q86UT5-2
Sequence of NHERF4_1, Q86UT5-2 (Q86UT5 other isoform, or with tags, fused parts or gaps): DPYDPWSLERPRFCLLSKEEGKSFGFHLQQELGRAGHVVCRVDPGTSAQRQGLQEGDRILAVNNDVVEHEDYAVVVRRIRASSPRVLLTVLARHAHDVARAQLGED

LNX1_1, Q8TBB1 = biological target: LNX1_1, Q8TBB1
Sequence of LNX1_1, Q8TBB1 (Q8TBB1 261-371): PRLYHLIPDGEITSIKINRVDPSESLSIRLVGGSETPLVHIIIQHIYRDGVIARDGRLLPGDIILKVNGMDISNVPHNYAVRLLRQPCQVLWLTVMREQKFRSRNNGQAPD

PDZRN4_1, Q6ZMN7 = biological target: PDZRN4_1, Q6ZMN7
Sequence of PDZRN4_1, Q6ZMN7 (Q6ZMN7 213-318): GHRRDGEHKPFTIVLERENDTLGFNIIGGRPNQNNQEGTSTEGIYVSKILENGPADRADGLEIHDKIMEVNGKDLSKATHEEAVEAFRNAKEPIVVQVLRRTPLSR

DLG4_2, P78352 = biological target: DLG4_2, P78352
Sequence of DLG4_2, P78352 (P78352 155-259): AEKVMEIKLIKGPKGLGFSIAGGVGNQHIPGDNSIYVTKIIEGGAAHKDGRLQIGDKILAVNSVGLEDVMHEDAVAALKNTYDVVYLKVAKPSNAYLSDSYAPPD

PICK1, Q9NRD5 = biological target: PICK1, Q9NRD5
Sequence of PICK1, Q9NRD5 (Q9NRD5 17-115): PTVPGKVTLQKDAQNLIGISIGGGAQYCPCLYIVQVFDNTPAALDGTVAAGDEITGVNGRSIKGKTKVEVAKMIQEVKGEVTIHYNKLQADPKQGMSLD

LRRC7, Q96NW7 = biological target: T3, LRRC7, Q96NW7
T3 sequence (Q96NW7 1440-1537, limits assumed, looked up): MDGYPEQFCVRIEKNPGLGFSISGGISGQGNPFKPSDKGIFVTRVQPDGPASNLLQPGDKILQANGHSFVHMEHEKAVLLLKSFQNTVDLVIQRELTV

TJP3_3, O95049 = biological target: T4, TJP3_3, O95049
T4 sequence (O95049 375-456, limits assumed, looked up): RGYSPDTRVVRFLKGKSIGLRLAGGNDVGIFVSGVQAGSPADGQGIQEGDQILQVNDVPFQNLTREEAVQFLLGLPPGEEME

DFNB31_1, Q9P202 = biological target: T5, DFNB31_1, Q9P202
T5 sequence (Q9P202 135-233, limits assumed, looked up): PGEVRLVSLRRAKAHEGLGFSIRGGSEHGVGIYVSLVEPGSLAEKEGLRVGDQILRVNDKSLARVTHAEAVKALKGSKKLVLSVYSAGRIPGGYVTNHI

Inadl_5, Q8NI35 = biological target: Inadl_5, Q8NI35
Sequence of Inadl_5, Q8NI35 (Q8NI35 673-780): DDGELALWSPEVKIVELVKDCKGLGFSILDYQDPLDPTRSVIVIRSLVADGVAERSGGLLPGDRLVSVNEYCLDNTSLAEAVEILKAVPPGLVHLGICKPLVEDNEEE

HTRA2, O43464 = biological target: HTRA2, O43464
Sequence of HTRA2, O43464 (O43464 355-458): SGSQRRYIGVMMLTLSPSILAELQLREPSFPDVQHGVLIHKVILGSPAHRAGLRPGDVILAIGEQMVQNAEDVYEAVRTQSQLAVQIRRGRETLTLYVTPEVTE

DLG1_2, Q12959 = biological target: DLG1_2, Q12959
Sequence of DLG1_2, Q12959 (Q12959 314-412): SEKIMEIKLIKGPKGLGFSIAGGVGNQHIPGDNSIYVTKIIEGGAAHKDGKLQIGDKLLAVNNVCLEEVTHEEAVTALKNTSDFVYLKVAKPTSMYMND

MAGI1_1, Q96QZ7 = biological target: MAGI1_1, Q96QZ7
Sequence of MAGI1_1, Q96QZ7 (Q96QZ7 1-106): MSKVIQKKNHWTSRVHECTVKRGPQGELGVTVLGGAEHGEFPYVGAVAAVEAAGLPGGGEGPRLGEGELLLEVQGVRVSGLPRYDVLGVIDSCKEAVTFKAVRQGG

TJP2_1, Q9UDY2 = biological target: TJP2_1, Q9UDY2
Sequence of TJP2_1, Q9UDY2 (Q9UDY2 24-128): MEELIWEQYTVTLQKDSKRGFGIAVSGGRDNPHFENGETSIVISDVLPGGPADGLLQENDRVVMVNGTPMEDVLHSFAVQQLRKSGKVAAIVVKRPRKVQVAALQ

MAGI3_2, Q5TCQ9 = biological target: MAGI3_2, Q5TCQ9
Sequence of MAGI3_2, Q5TCQ9 (Q5TCQ9 398-503): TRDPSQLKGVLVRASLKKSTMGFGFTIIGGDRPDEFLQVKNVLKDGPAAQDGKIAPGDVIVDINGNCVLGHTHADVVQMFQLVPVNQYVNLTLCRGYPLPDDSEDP

IL16_3, Q14005 = biological target: IL16_3, Q14005
Sequence of IL16_3, Q14005 (Q14005 1107-1207): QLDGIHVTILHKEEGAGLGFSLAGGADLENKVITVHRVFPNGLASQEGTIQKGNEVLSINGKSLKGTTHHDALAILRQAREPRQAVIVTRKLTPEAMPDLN

Inadl_8, Q8NI35 = biological target: Inadl_8, Q8NI35
Sequence of Inadl_8, Q8NI35 (Q8NI35 1425-1530): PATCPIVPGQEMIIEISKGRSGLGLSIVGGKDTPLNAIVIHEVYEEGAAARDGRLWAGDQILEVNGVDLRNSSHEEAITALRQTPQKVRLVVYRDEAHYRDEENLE

Inadl_10, Q8NI35 = biological target: Inadl_10, Q8NI35
Sequence of Inadl_10, Q8NI35 (Q8NI35 1673-1763): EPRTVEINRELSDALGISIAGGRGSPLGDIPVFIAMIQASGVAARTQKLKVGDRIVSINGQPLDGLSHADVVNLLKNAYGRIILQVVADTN

MPDZ_12, O75970 = biological target: T6, MPDZ_12, O75970
T6 sequence (O75970 1857-1958, limits assumed, looked up): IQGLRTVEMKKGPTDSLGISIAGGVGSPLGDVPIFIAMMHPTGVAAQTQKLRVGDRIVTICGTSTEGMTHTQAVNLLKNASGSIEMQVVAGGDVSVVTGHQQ

SYNJ2BP, P57105 = biological target: T7, SYNJ2BP, P57105
T7 sequence (P57105 8-110, limits assumed, looked up): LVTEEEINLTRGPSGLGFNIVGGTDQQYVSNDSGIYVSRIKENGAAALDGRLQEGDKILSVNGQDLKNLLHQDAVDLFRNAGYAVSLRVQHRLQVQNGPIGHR

FRMPD3, Q5JV73 = biological target: FRMPD3, Q5JV73
Sequence of FRMPD3, Q5JV73 (Q5JV73 12-100): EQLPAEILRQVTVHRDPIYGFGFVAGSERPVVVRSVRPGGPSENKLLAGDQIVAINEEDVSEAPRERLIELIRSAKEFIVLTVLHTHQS

FRMPD4, Q14CM0 = biological target: FRMPD4, Q14CM0
Sequence of FRMPD4, Q14CM0 (Q14CM0 67-160): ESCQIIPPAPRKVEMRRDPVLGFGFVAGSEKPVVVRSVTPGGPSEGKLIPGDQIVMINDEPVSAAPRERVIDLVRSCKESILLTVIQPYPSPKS

RHPN1, Q8TCX5 = biological target: T8, RHPN1, Q8TCX5
T8 sequence (Q8TCX5 508-602, limits assumed, looked up): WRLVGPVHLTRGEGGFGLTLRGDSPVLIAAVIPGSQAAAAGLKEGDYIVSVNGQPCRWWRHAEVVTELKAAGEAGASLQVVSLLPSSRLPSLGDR

FRMPD2_1, Q68DX3 = biological target: FRMPD2_1, Q68DX3
Sequence of FRMPD2_1, Q68DX3 (Q68DX3 770-861): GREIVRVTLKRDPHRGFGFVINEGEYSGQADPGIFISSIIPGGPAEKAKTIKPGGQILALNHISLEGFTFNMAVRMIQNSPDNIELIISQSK

SNTG2, Q9NY99 = biological target: T9, SNTG2, Q9NY99
T9 sequence (Q9NY99 68-166, limits assumed, looked up): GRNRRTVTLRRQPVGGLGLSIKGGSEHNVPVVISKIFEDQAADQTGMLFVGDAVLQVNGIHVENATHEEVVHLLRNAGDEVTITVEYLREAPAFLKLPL

Sequence of FRMPD2_3, Q68DX3 (Q68DX3 1073-1166): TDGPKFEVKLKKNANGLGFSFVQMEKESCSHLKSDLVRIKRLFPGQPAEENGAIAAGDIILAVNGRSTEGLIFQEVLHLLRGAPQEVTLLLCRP

With NIAESLESLV [PTPRZ1, P23471] the pKd (FRMPD2_3, Q68DX3) was “below the threshold”, the pKd (LIN7C, Q9NUP9) was 4.08 and the pKd (SCRIB_2, Q14160) was 3.66. For the same binder, the pKd (SHANK1, Q9Y566) was “below the threshold”, the pKd (NHERF4_1, Q86UT5-2) was 3.7 and the pKd (LNX1_1, Q8TBB1) was 4.36. For the same binder, the pKd (PDZRN4_1, Q6ZMN7) was 3.99, the pKd (DLG4_2, P78352) was 5.09 and the pKd (PICK1, Q9NRD5) was “below the threshold”. The pKd (LRRC7, Q96NW7) was 3.76, the pKd (TJP3_3, O95049) was “below the threshold” and the pKd (DFNB31_1, Q9P202) was 3.8. For the same binder, the pKd (Inadl_5, Q8NI35) was “below the threshold”, the pKd (HTRA2, O43464) was “below the threshold” and the pKd (DLG1_2, Q12959) was 5.31. The pKd (MAGI1_1, Q96QZ7) was “below the threshold”, the pKd (TJP2_1, Q9UDY2) was “below the threshold” and the pKd (MAGI3_2, Q5TCQ9) was 4.92. The pKd (IL16_3, Q14005) was “below the threshold”, the pKd (Inadl_8, Q8NI35) was “below the threshold” and the pKd (Inadl_10, Q8NI35) was “below the threshold”. The pKd (MPDZ_12, O75970) was “below the threshold”, the pKd (SYNJ2BP, P57105) was 4.83 and the pKd (FRMPD3, Q5JV73) was “below the threshold”. For the same binder, the pKd (FRMPD4, Q14CM0) was “below the threshold”, the pKd (RHPN1, Q8TCX5) was 4.6 and the pKd (FRMPD2_1, Q68DX3) was “below the threshold”. It also gave a pKd (SNTG2, Q9NY99) of 4.34.

With VKRNSKETVV [MARCHF3, Q86UD3] the pKd (FRMPD2_3, Q68DX3) was “below the threshold”, the pKd (LIN7C, Q9NUP9) was 3.95 and the pKd (SCRIB_2, Q14160) was 3.89. For the same binder, the pKd (SHANK1, Q9Y566) was “below the threshold”, the pKd (NHERF4_1, Q86UT5-2) was “below the threshold” and the pKd (LNX1_1, Q8TBB1) was “below the threshold”. The pKd (PDZRN4_1, Q6ZMN7) was “below the threshold”, the pKd (DLG4_2, P78352) was 6.03 and the pKd (PICK1, Q9NRD5) was “below the threshold”. The pKd (LRRC7, Q96NW7) was 3.79, the pKd (TJP3_3, O95049) was “below the threshold” and the pKd (DFNB31_1, Q9P202) was 3.64. For the same binder, the pKd (Inadl_5, Q8NI35) was 3.67, the pKd (HTRA2, O43464) was “below the threshold” and the pKd (DLG1_2, Q12959) was 6.11. For the same binder, the pKd (MAGI1_1, Q96QZ7) was “below the threshold”, the pKd (TJP2_1, Q9UDY2) was 3.8 and the pKd (MAGI3_2, Q5TCQ9) was 5.72. For the same binder, the pKd (IL16_3, Q14005) was “below the threshold”, the pKd (Inadl_8, Q8NI35) was “below the threshold” and the pKd (Inadl_10, Q8NI35) was “below the threshold”. The pKd (MPDZ_12, O75970) was “below the threshold”, the pKd (SYNJ2BP, P57105) was 4.76 and the pKd (FRMPD3, Q5JV73) was “below the threshold”. For the same binder, the pKd (FRMPD4, Q14CM0) was “below the threshold”, the pKd (RHPN1, Q8TCX5) was 4.07 and the pKd (FRMPD2_1, Q68DX3) was 3.8. For the same binder, the pKd (SNTG2, Q9NY99) was 4.54.

LESTTVGTSV [KARS1, Q15046] was tested, and the pKd (FRMPD2_3, Q68DX3) was “below the threshold”, the pKd (LIN7C, Q9NUP9) was “below the threshold” and the pKd (SCRIB_2, Q14160) was 4.46. For the same binder, the pKd (SHANK1, Q9Y566) was 3.71, the pKd (NHERF4_1, Q86UT5-2) was “below the threshold” and the pKd (LNX1_1, Q8TBB1) was 3.97. The pKd (PDZRN4_1, Q6ZMN7) was 4.29, the pKd (DLG4_2, P78352) was 4.35 and the pKd (PICK1, Q9NRD5) was “below the threshold”. For the same binder, the pKd (LRRC7, Q96NW7) was “below the threshold”, the pKd (TJP3_3, O95049) was “below the threshold” and the pKd (DFNB31_1, Q9P202) was 3.61. The pKd (Inadl_5, Q8NI35) was “below the threshold”, the pKd (HTRA2, O43464) was “below the threshold” and the pKd (DLG1_2, Q12959) was 4.34. For the same binder, the pKd (MAGI1_1, Q96QZ7) was 3.5, the pKd (TJP2_1, Q9UDY2) was “below the threshold” and the pKd (MAGI3_2, Q5TCQ9) was 4.09. The pKd (IL16_3, Q14005) was “below the threshold”, the pKd (Inadl_8, Q8NI35) was 4.15 and the pKd (Inadl_10, Q8NI35) was “below the threshold”. The pKd (MPDZ_12, O75970) was 3.62, the pKd (SYNJ2BP, P57105) was 5.44 and the pKd (FRMPD3, Q5JV73) was “below the threshold”. For the same binder, the pKd (FRMPD4, Q14CM0) was “below the threshold”, the pKd (RHPN1, Q8TCX5) was 4.07 and the pKd (FRMPD2_1, Q68DX3) was “below the threshold”. For the same binder, the pKd (SNTG2, Q9NY99) was “below the threshold”.

With ILRKSTTTTV [PRR16, Q569H4] the pKd (FRMPD2_3, Q68DX3) was “below the threshold”, the pKd (LIN7C, Q9NUP9) was “below the threshold” and the pKd (SCRIB_2, Q14160) was “below the threshold”. For the same binder, the pKd (SHANK1, Q9Y566) was “below the threshold”, the pKd (NHERF4_1, Q86UT5-2) was “below the threshold” and the pKd (LNX1_1, Q8TBB1) was “below the threshold”. The pKd (PDZRN4_1, Q6ZMN7) was “below the threshold”, the pKd (DLG4_2, P78352) was 5.2 and the pKd (PICK1, Q9NRD5) was 3.95. For the same binder, the pKd (LRRC7, Q96NW7) was “below the threshold”, the pKd (TJP3_3, O95049) was “below the threshold” and the pKd (DFNB31_1, Q9P202) was “below the threshold”. The pKd (Inadl_5, Q8NI35) was “below the threshold”, the pKd (HTRA2, O43464) was “below the threshold” and the pKd (DLG1_2, Q12959) was 5.43. For the same binder, the pKd (MAGI1_1, Q96QZ7) was “below the threshold”, the pKd (TJP2_1, Q9UDY2) was 3.83 and the pKd (MAGI3_2, Q5TCQ9) was 5.15. For the same binder, the pKd (IL16_3, Q14005) was “below the threshold”, the pKd (Inadl_8, Q8NI35) was 3.62 and the pKd (Inadl_10, Q8NI35) was “below the threshold”. For the same binder, the pKd (MPDZ_12, O75970) was “below the threshold”, the pKd (SYNJ2BP, P57105) was 4.2 and the pKd (FRMPD3, Q5JV73) was “below the threshold”. The pKd (FRMPD4, Q14CM0) was “below the threshold”, the pKd (RHPN1, Q8TCX5) was 4.01 and the pKd (FRMPD2_1, Q68DX3) was “below the threshold”. The pKd (SNTG2, Q9NY99) was “below the threshold”.
